Measured values taken from PMC9482650, “Quantitative fragmentomics allow affinity mapping of interactomes” (Nature Communications, 2022).

Assays:
Test in all cases: holdup assay
Parameters in all cases: key: below the threshold = too weak to quantify, mostly under pKd 3.1 to 4
Inadl_8, Q8NI35 = biological target: Inadl_8, Q8NI35
SCRIB_3, Q14160 = biological target: SCRIB_3, Q14160
NHERF4_1, Q86UT5-2 = biological target: NHERF4_1, Q86UT5-2
Inadl_9, Q8NI35 = biological target: Inadl_9, Q8NI35
GRIP2_3, Q9C0E4 = biological target: GRIP2_3, Q9C0E4
SCRIB_1, Q14160 = biological target: SCRIB_1, Q14160
DLG1_2, Q12959 = biological target: DLG1_2, Q12959
TJP1_3, Q07157 = biological target: TJP1_3, Q07157
DLG3_3, Q92796 = biological target: T1, DLG3_3, Q92796
T1 sequence (Q92796 374-475, limits assumed, looked up): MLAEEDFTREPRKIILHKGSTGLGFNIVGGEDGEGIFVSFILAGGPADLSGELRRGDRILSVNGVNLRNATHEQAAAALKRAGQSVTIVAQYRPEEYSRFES

HTRA3, P83110 = biological target: T2, HTRA3, P83110
T2 sequence (P83110 354-453, limits assumed, looked up): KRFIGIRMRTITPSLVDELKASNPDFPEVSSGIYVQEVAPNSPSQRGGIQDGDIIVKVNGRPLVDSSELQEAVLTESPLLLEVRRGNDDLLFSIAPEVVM

GRIP1_5, Q9Y3R0 = biological target: T3, GRIP1_5, Q9Y3R0
T3 sequence (Q9Y3R0 568-668, limits assumed, looked up): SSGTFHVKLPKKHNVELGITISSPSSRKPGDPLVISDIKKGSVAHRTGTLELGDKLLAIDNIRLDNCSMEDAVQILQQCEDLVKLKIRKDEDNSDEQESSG

Inadl_4, Q8NI35 = biological target: Inadl_4, Q8NI35
APBA1_2, Q02410 = biological target: T4, APBA1_2, Q02410
T4 sequence (Q02410 742-832, limits assumed, looked up): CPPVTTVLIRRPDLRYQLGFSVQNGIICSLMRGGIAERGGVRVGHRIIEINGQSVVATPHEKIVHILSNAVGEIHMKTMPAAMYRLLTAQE

Inadl_10, Q8NI35 = biological target: Inadl_10, Q8NI35
PDLIM1, O00151 = biological target: PDLIM1, O00151
DLG1_3, Q12959 = biological target: DLG1_3, Q12959
GOPC, Q9HD26 = biological target: GOPC, Q9HD26
PDZRN4_1, Q6ZMN7 = biological target: PDZRN4_1, Q6ZMN7
FRMPD1, Q5SYB0 = biological target: T5, FRMPD1, Q5SYB0
T5 sequence (Q5SYB0 52-145, limits assumed, looked up): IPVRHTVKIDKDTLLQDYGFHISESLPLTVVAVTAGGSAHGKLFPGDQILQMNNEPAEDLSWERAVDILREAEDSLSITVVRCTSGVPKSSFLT

LNX2_2, Q8N448 = biological target: T6, LNX2_2, Q8N448
T6 sequence (Q8N448 334-432, limits assumed, looked up): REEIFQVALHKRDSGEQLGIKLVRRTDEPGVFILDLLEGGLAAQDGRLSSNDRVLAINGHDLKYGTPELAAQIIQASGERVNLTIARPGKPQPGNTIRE

Inadl_5, Q8NI35 = biological target: Inadl_5, Q8NI35
DFNB31_2, Q9P202 = biological target: T7, DFNB31_2, Q9P202
T7 sequence (Q9P202 274-371, limits assumed, looked up): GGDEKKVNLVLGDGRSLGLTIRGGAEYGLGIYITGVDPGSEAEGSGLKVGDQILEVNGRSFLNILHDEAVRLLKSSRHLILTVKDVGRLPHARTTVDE

FRMPD3, Q5JV73 = biological target: FRMPD3, Q5JV73
NOS1, P29475 = biological target: NOS1, P29475
TJP2_1, Q9UDY2 = biological target: TJP2_1, Q9UDY2
PTPN3, P26045 = biological target: PTPN3, P26045
APBA1_1, Q02410 = biological target: T8, APBA1_1, Q02410
T8 sequence (Q02410 651-752, limits assumed, looked up): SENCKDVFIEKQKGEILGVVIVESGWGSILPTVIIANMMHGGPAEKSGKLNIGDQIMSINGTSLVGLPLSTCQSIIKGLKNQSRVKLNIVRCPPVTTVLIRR

AHNAK1, Q09666 = biological target: AHNAK1, Q09666
DVL3, Q92997 = biological target: T9, DVL3, Q92997
T9 sequence (Q92997 244-331, limits assumed, looked up): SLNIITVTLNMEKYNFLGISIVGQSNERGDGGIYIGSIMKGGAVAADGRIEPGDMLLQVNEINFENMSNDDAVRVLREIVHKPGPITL

[1] = plain residues with an end cap or a label only (N-terminal biotin on a linker: ado-ado)
[2] = plain residues with an end cap or a label only (N-terminal biotin on a linker: (peg)3)

Chain of AHNAK1, Q09666 (Q09666 4-100): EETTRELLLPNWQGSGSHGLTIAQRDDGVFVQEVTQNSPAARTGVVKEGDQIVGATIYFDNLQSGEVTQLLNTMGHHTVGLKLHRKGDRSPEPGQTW
Chain of NHERF4_1, Q86UT5-2 (Q86UT5 other isoform, or with tags, fused parts or gaps): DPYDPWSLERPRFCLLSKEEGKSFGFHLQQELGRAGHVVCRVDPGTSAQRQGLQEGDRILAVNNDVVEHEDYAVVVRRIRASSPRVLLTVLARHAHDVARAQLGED
Chain of PDZRN4_1, Q6ZMN7 (Q6ZMN7 213-318): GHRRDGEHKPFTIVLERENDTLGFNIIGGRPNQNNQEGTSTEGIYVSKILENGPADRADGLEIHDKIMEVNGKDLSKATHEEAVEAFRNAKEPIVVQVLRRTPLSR
Chain of SCRIB_1, Q14160 (Q14160 718-814): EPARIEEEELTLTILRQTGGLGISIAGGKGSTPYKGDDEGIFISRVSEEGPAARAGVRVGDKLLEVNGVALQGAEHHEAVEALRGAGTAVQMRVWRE
Chain of DLG1_2, Q12959 (Q12959 314-412): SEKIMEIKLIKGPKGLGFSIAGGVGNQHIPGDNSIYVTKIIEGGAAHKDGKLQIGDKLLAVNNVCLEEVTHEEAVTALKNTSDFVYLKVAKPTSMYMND
Chain of TJP1_3, Q07157 (Q07157 416-512): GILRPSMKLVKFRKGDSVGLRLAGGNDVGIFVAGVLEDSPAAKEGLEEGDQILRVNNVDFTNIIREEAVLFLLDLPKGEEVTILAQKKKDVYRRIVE
Chain of Inadl_10, Q8NI35 (Q8NI35 1673-1763): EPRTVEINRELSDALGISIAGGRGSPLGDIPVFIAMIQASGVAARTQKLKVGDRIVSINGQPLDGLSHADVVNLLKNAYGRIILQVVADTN
Chain of TJP2_1, Q9UDY2 (Q9UDY2 24-128): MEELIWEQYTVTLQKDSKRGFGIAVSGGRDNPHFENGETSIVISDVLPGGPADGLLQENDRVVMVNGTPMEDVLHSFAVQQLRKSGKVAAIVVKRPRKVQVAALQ
Chain of Inadl_9, Q8NI35 (Q8NI35 1530-1615): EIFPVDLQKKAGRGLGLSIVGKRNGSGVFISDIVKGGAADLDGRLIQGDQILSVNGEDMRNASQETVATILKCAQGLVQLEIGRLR
Chain of PDLIM1, O00151 (O00151 1-87): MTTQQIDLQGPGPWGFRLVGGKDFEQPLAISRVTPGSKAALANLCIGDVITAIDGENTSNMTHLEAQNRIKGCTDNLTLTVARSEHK
Chain of PTPN3, P26045 (P26045 505-587): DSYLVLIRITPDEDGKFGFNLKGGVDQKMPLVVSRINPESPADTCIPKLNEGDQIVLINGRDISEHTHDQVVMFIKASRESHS
Chain of GRIP2_3, Q9C0E4 (Q9C0E4 238-339): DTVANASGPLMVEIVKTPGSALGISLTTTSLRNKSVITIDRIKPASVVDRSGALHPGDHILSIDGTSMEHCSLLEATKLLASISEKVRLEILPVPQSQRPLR
Chain of NOS1, P29475 (P29475 9-101): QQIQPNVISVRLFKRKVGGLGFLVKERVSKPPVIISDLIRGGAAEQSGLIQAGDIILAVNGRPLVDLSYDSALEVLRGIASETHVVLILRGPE
Chain of Inadl_8, Q8NI35 (Q8NI35 1425-1530): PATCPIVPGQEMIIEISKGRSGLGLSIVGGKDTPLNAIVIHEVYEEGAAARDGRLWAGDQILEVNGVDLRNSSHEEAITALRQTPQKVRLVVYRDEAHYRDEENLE
Chain of FRMPD3, Q5JV73 (Q5JV73 12-100): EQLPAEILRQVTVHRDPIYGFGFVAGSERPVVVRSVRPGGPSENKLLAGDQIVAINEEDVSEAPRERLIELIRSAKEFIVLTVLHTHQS
Chain of DLG1_3, Q12959 (Q12959 457-571): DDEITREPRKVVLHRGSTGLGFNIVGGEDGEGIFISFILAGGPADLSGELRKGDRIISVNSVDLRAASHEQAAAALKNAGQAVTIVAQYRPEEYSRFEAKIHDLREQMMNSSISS
Chain of SCRIB_3, Q14160 (Q14160 999-1103): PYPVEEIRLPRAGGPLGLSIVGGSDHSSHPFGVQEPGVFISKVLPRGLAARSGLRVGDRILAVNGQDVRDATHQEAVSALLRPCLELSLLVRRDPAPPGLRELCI
Chain of Inadl_5, Q8NI35 (Q8NI35 673-780): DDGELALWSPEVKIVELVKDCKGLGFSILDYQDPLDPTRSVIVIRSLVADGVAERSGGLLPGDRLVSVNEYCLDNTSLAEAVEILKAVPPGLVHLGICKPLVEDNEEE
Chain of Inadl_4, Q8NI35 (Q8NI35 547-651): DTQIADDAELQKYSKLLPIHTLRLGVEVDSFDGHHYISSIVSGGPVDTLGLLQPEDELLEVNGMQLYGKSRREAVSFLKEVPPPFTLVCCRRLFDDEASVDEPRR

NTLNRKTTPV [CACNG8, Q8WXS5] was tested, and the pKd (Inadl_8, Q8NI35; [1]) was 4.2, the pKd (SCRIB_3, Q14160; [1]) was 3.88 and the pKd (NHERF4_1, Q86UT5-2; [1]) was 3.67. The pKd (Inadl_9, Q8NI35; [1]) was “below the threshold”, the pKd (GRIP2_3, Q9C0E4; [1]) was “below the threshold” and the pKd (SCRIB_1, Q14160; [1]) was 3.64. For the same binder, the pKd (DLG1_2, Q12959; [1]) was 5.05, the pKd (TJP1_3, Q07157; [1]) was “below the threshold” and the pKd (DLG3_3, Q92796; [1]) was 5.08. The pKd (HTRA3, P83110; [1]) was “below the threshold”, the pKd (GRIP1_5, Q9Y3R0; [1]) was 3.48 and the pKd (Inadl_4, Q8NI35; [1]) was “below the threshold”. For the same binder, the pKd (APBA1_2, Q02410; [1]) was 3.91, the pKd (Inadl_10, Q8NI35; [1]) was “below the threshold” and the pKd (PDLIM1, O00151; [1]) was “below the threshold”. The pKd (DLG1_3, Q12959; [1]) was 4.33, the pKd (GOPC, Q9HD26; [1]) was 3.72 and the pKd (PDZRN4_1, Q6ZMN7; [1]) was 3.63. For the same binder, the pKd (FRMPD1, Q5SYB0; [1]) was “below the threshold”, the pKd (LNX2_2, Q8N448; [1]) was “below the threshold” and the pKd (Inadl_5, Q8NI35; [1]) was “below the threshold”. The pKd (DFNB31_2, Q9P202; [1]) was “below the threshold”, the pKd (FRMPD3, Q5JV73; [1]) was “below the threshold” and the pKd (NOS1, P29475; [1]) was 4.04. The pKd (TJP2_1, Q9UDY2; [1]) was 4.05, the pKd (PTPN3, P26045; [1]) was 4.98 and the pKd (APBA1_1, Q02410; [1]) was “below the threshold”. The pKd (AHNAK1, Q09666; [1]) was “below the threshold” and the pKd (DVL3, Q92997; [1]) was “below the threshold”.

Binder RRRRSQSRESQC [HBV-HBc, P03193] has a pKd (Inadl_8, Q8NI35; [2]) of 3.58, a pKd (SCRIB_3, Q14160; [2]) of 4.03 and a pKd (NHERF4_1, Q86UT5-2; [2]) of 3.86. For the same binder, the pKd (Inadl_9, Q8NI35; [2]) was “below the threshold”, the pKd (GRIP2_3, Q9C0E4; [2]) was “below the threshold” and the pKd (SCRIB_1, Q14160; [2]) was 4.48. The pKd (DLG1_2, Q12959; [2]) was 4.58, the pKd (TJP1_3, Q07157; [2]) was “below the threshold” and the pKd (DLG3_3, Q92796; [2]) was 3.69. For the same binder, the pKd (HTRA3, P83110; [2]) was 3.58, the pKd (GRIP1_5, Q9Y3R0; [2]) was “below the threshold” and the pKd (Inadl_4, Q8NI35; [2]) was “below the threshold”. For the same binder, the pKd (APBA1_2, Q02410; [2]) was “below the threshold”, the pKd (Inadl_10, Q8NI35; [2]) was “below the threshold” and the pKd (PDLIM1, O00151; [2]) was “below the threshold”. For the same binder, the pKd (DLG1_3, Q12959; [2]) was 3.98, the pKd (GOPC, Q9HD26; [2]) was “below the threshold” and the pKd (PDZRN4_1, Q6ZMN7; [2]) was “below the threshold”. For the same binder, the pKd (FRMPD1, Q5SYB0; [2]) was “below the threshold”, the pKd (LNX2_2, Q8N448; [2]) was “below the threshold” and the pKd (Inadl_5, Q8NI35; [2]) was “below the threshold”. For the same binder, the pKd (DFNB31_2, Q9P202; [2]) was “below the threshold”, the pKd (FRMPD3, Q5JV73; [2]) was “below the threshold” and the pKd (NOS1, P29475; [2]) was “below the threshold”. The pKd (TJP2_1, Q9UDY2; [2]) was “below the threshold”, the pKd (PTPN3, P26045; [2]) was 4.7 and the pKd (APBA1_1, Q02410; [2]) was “below the threshold”. The pKd (AHNAK1, Q09666; [2]) was “below the threshold” and the pKd (DVL3, Q92997; [2]) was “below the threshold”.
